Assay results taken from article PMC8024975.

Biological target: P. aeruginosa ClpGGI WT (P. aeruginosa)

B1: peptide 134 (peptide)
peptide: FLRYLKASKVPLN
- ATPase activity of 1 μM ClpGGI with increasing Pep134 concentrations (saturation of the stimulation at 25 μM peptide) (ATP min^−1 monomer^−1): 108
